# Test: melting temperature; melt of duplexes
# Details: sodium 0.0675 M; strand 1 µM
substance,measurement,value
CGACGTGCCTAATGTGCTG+CAGCACATTCGGCACGTCG (((((((((.(((((((((+))))))))).))))))))),Tm,57 °C
CGACGTGCTCGATGTGCTG+CAGCACATGAAGCACGTCG (((((((((..((((((((+))))))))..))))))))),Tm,52.8 °C
CGACGTGCCTTATGTGCTG+CAGCACATGGGGCACGTCG (((((((((..((((((((+))))))))..))))))))),Tm,56.1 °C
CGACGTGCAGCATGTGCTG+CAGCACATGTTGCACGTCG (((((((((.(((((((((+))))))))).))))))))),Tm,58.7 °C
CGACGTGCATAATGTGCTG+CAGCACATCAGGCACGTCG ((((((((.(.((((((((+)))))))).).)))))))),Tm,50.2 °C
CGACGTGCAGTATGTGCTG+CAGCACATGGTGCACGTCG (((((((((..((((((((+))))))))..))))))))),Tm,53.9 °C
CGACGTGCGACATGTGCTG+CAGCACATGCGGCACGTCG ((((((((..(((((((((+)))))))))..)))))))),Tm,54.4 °C
CGACGTGCCACATGTGCTG+CAGCACATGGAGCACGTCG ((((((((..(((((((((+)))))))))..)))))))),Tm,56.1 °C
CGACGTGCGTAATGTGCTG+CAGCACATCACGCACGTCG ((((((((((.((((((((+)))))))).)))))))))),Tm,58 °C
CGACGTGCCCTATGTGCTG+CAGCACATAGAGCACGTCG ((((((((.((((((((((+)))))))))).)))))))),Tm,55.6 °C
CGACGTGCCCTATGTGCTG+CAGCACATCCGGCACGTCG (((((((((..((((((((+))))))))..))))))))),Tm,52.2 °C
CGACGTGCCTTATGTGCTG+CAGCACATTTCGCACGTCG ((((((((...((((((((+))))))))...)))))))),Tm,47.1 °C
CGACGTGCAGTATGTGCTG+CAGCACATAAGGCACGTCG ((((((((..(((((((((+)))))))))..)))))))),Tm,52.1 °C
CGACGTGCAGCATGTGCTG+CAGCACATATCGCACGTCG ((((((((...((((((((+))))))))...)))))))),Tm,46.6 °C
CGACGTGCTCAATGTGCTG+CAGCACATCAAGCACGTCG (((((((((..((((((((+))))))))..))))))))),Tm,51.6 °C
CGACGTGCTAGATGTGCTG+CAGCACATGGTGCACGTCG ((((((((...((((((((+))))))))...)))))))),Tm,46.9 °C
CGACGTGCTGTATGTGCTG+CAGCACATGGAGCACGTCG (((((((((..((((((((+))))))))..))))))))),Tm,55 °C
CGACGTGCAGCATGTGCTG+CAGCACATGACGCACGTCG ((((((((..(((((((((+)))))))))..)))))))),Tm,52 °C
CGACGTGCTGAATGTGCTG+CAGCACATTGGGCACGTCG ((((((((..(((((((((+)))))))))..)))))))),Tm,53.8 °C
CGACGTGCCGAATGTGCTG+CAGCACATCCCGCACGTCG ((((((((.(.((((((((+)))))))).).)))))))),Tm,49.6 °C
CGACGTGCCATATGTGCTG+CAGCACATCTGGCACGTCG ((((((((((.((((((((+)))))))).)))))))))),Tm,57.1 °C
CGACGTGCATCATGTGCTG+CAGCACATTAAGCACGTCG ((((((((.(.((((((((+)))))))).).)))))))),Tm,48.6 °C
CGACGTGCACTATGTGCTG+CAGCACATGCTGCACGTCG (((((((((..((((((((+))))))))..))))))))),Tm,45.5 °C
CGACGTGCAACATGTGCTG+CAGCACATAAGGCACGTCG ((((((((...((((((((+))))))))...)))))))),Tm,47.8 °C
CGACGTGCCAGATGTGCTG+CAGCACATACGGCACGTCG (((((((((..((((((((+))))))))..))))))))),Tm,54.7 °C
CGACGTGCTATATGTGCTG+CAGCACATCCCGCACGTCG ((((((((...((((((((+))))))))...)))))))),Tm,47.2 °C
CGACGTGCAAAATGTGCTG+CAGCACATGCAGCACGTCG ((((((((...((((((((+))))))))...)))))))),Tm,53.8 °C
CGACGTGCCCGATGTGCTG+CAGCACATAGCGCACGTCG ((((((((.(.((((((((+)))))))).).)))))))),Tm,50.8 °C
CGACGTGCCTAATGTGCTG+CAGCACATCCGGCACGTCG (((((((((..((((((((+))))))))..))))))))),Tm,52 °C
CGACGTGCGATATGTGCTG+CAGCACATCACGCACGTCG (((((((((..((((((((+))))))))..))))))))),Tm,53.7 °C
CGACGTGCAGCATGTGCTG+CAGCACATATTGCACGTCG (((((((((..((((((((+))))))))..))))))))),Tm,49.1 °C
CGACGTGCATGATGTGCTG+CAGCACATGTCGCACGTCG ((((((((...((((((((+))))))))...)))))))),Tm,48.8 °C
CGACGTGCCCGATGTGCTG+CAGCACATATTGCACGTCG ((((((((...((((((((+))))))))...)))))))),Tm,47.7 °C
CGACGTGCTGGATGTGCTG+CAGCACATAGTGCACGTCG ((((((((...((((((((+))))))))...)))))))),Tm,45 °C
CGACGTGCCGGATGTGCTG+CAGCACATTAAGCACGTCG ((((((((...((((((((+))))))))...)))))))),Tm,50.4 °C
CGACGTGCGAGATGTGCTG+CAGCACATGCGGCACGTCG ((((((((...((((((((+))))))))...)))))))),Tm,50.4 °C
